In patent US20220403031A1:

What was measured:
[1] = molecular target: 4-1BB.his (Homo sapiens (Human)) (UniProt Q07011); assay: non-specific binding ELISA; antigen coated at 2 ug/mL, antibody at 10 ug/ml
[2] = molecular target: HER3.his (Homo sapiens (Human)) (UniProt P21860); assay: as above
OX40.his = assay: as above
[3] = molecular target: PD-1.his (Homo sapiens (Human)) (UniProt Q15116); assay: as above
[4] = molecular target: human PD-L1 on CHO-K1 cells (W315-CHO-K1.hPro1.C11) (human) (UniProt Q9NZQ7); assay: FACS affinity on human PD-L1 cells, quantitative beads; design: Bmax: unit not given here
Sequence of human PD-L1 on CHO-K1 cells (W315-CHO-K1.hPro1.C11) (human) (Q9NZQ7 19-290): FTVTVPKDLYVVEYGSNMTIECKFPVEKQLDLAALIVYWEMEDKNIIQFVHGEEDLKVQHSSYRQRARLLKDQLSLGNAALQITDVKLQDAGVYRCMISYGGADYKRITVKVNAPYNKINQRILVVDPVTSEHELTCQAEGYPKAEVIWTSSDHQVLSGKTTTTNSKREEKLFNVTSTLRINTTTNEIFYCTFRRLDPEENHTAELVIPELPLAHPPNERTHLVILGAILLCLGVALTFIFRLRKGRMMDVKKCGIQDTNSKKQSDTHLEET

Sequence of OX40.his (P43489 29-214): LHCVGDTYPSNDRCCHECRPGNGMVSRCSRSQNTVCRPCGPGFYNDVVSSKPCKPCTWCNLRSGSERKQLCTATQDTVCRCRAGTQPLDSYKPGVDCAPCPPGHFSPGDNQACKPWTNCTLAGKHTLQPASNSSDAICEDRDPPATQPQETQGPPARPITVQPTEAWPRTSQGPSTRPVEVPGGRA
Sequence of 4-1BB.his (Homo sapiens (Human)) (Q07011 24-186 limits assumed): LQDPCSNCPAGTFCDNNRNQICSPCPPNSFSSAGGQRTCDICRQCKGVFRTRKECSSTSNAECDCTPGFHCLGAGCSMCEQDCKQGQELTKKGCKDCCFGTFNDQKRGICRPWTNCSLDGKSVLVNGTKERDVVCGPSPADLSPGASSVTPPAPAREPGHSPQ
Sequence of PD-1.his (Homo sapiens (Human)) (Q15116 25-170 limits assumed): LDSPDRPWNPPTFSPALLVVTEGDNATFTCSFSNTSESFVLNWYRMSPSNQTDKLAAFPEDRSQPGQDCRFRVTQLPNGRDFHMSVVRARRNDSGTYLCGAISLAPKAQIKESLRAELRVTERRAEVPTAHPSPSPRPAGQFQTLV

Binder	Absorbance at 450 nm [1]	Absorbance at 450 nm [2]	Absorbance at 450 nm (OX40.his)	Absorbance at 450 nm [3]	Bmax [4]	Kd [4] [nM]
AP3R2-1A3-z12-hIgG4 (Fc fusion, not shown: a dimerising Fc or GST) EVQLVESGGGLVQPGGSLRLSCAASGHFSNLAVNWFRQAPGKERELVAGILWSGGSTFYADSVKGRFTISRGNAENMLYLQMNSLRAEDTAVYYCNTGTNWGQGTLVTVSS	0.07	0.07	0.06	0.06	–	–
BMK9.Fc(IgG4) (Benchmark antibody 9, variable region of KN035 conjugated with human IgG4 constant region) (Fc fusion, INN chains, looked up, VHH-Fc IgG4) VH: QVQLVESGGGLVQPGGSLRLSCAASGKMSSRRCMAWFRQAPGKERERVAKLLTTSGSTYLADSVKGRFTISRDNSKNTVYLQMNSLRAEDTAVYYCAADSFEDPTCTLVTSSGAFQYWGQGTLVTVSS	–	–	–	–	2.8e-10	0.24
